Publication PMC11568366

Target: SET/template-activating factor Iβ (SET/TAF-Iβ), recombinant (UniProt Q01105)
Assay: ITC; 300 μM reduced Cc injected (17 x 2.91 μL) into 30 μM SET/TAF-Iβ (as homodimer) in the cell, 25°C, 10 mM sodium phosphate pH 7.4; WT fitted with two cooperative binding sites, mutants with independent binding sites

Substance: Y48pCMF cytochrome c phosphomimetic mutant (reduced) (from UniProt P99999 2-105) (natural protein)
- Kd: 23 µM
- dH: -4.6 kcal/mol
- stoichiometry N: 2.2
